± gives the uncertainty stated by the source.
Assay: self-splicing fitness, log relative to wild type (ln ratio); higher = more splicing; Tetrahymena group I intron in knt gene, E. coli kanamycin selection, DiMSum; sequences stand for … in CUCUCU…GGAGGGAAAAGUUAUCAGGCAUGCACCUGGUAGCUAGUCUUUAAACCAAUAGAUUGCAUCGGUUUAAAAGGCAAGACCGUCAAAUUGCGGGAAAGGGGUCAACAGCCGUUCAGUACCAAGUCUCAGGGGAAACUUUGAGAUGGCCUUGCAAAGGGUAUGGUAAUAAGCUGACGGACAUGGUCCUAACCACGCAGCCAAGUCCUAAGUCAACAGAUCUUCUGUUGAUAUGGAUGCAGUUCACAGACUAAAUGUCGGUCGGGGAAGAUGUAUUCUUCUCAUAAGAUAUAGUCGGACCUCUCCUUAAUGGGAGCUAGCGGAUGAAGUGAUGCAACACUGGAGCCGCUGGGAACUAAUUUGUAUGCGAAAGUAUAUUGAUUAGUUUUGGAGUACUCGUGGUCG
Procedure, shortened: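 Pooled colonies went to amplicon sequencing on an Illumina HiSeq 2500 after six replicate transformations. The plates were LB agar with 100 μg/mL carbenicillin, 50 μM IPTG and 0.2% rhamnose, with or without 25 μg/mL kanamycin, incubated overnight at 37°C or 30°C. The E. coli BL21(DE3) library had all eight P1ex-region intron nucleotides randomised, the intron placed in the knt kanamycin-resistance gene on pET-22b(+). DiMSum fitness is the error-weighted combination of replicate fold changes, kanamycin against none, normalised to wild type.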

Sequence | self-splicing fitness (ln) (30 °C) | self-splicing fitness (ln) (37 °C)
CAUCAGCAAUAUUACGUGCU | -3.71 ± 0.28 | -2.46 ± 0.21
UGCCAGCAAUAUUACGUCGA | -1.17 ± 0.088 | -0.949 ± 0.11
UAAAAGCAAUAUUACGCAUG | -0.716 ± 0.068 | -0.257 ± 0.1
UAUGAGCAAUAUUACGCGAA | -1.62 ± 0.18 | -0.947 ± 0.32
GUCGAGCAAUAUUACGAACA | -1.67 ± 0.37 | -0.344 ± 0.29
CACUAGCAAUAUUACGUAAU | -3.08 ± 0.22 | -2.54 ± 0.2
AGCGAGCAAUAUUACGGUAA | -2.45 ± 0.27 | -2.49 ± 0.24
UGUUAGCAAUAUUACGUCAA | -1.27 ± 0.12 | -1.2 ± 0.11
UGACAGCAAUAUUACGAACC | -2.97 ± 0.25 | -1.37 ± 0.22
GUGAAGCAAUAUUACGAAAG | -1.41 ± 0.15 | -0.599 ± 0.15
UGGUAGCAAUAUUACGCCCU | -0.668 ± 0.16 | 0.287 ± 0.16
CACAAGCAAUAUUACGUCAU | -3.45 ± 0.14 | -2.78 ± 0.15
AUGUAGCAAUAUUACGGCCC | -0.72 ± 0.34 | -0.359 ± 0.25
UCAAAGCAAUAUUACGCCGG | -0.974 ± 0.13 | 0.015 ± 0.15
AACUAGCAAUAUUACGCCAG | -1.99 ± 0.16 | -0.848 ± 0.23
CAGAAGCAAUAUUACGCAGC | -3.43 ± 0.23 | -2.35 ± 0.24
GAUUAGCAAUAUUACGGCUA | -0.867 ± 0.099 | -0.414 ± 0.1
AUUGAGCAAUAUUACGUCAA | -3.05 ± 0.26 | -2.6 ± 0.28
CAACAGCAAUAUUACGCGUG | -4.02 ± 0.22 | -3.31 ± 0.16
GUGCAGCAAUAUUACGUCCU | -0.637 ± 0.12 | -0.541 ± 0.096
CUGUAGCAAUAUUACGAUCU | -3.56 ± 0.26 | -2.05 ± 0.29
GCUUAGCAAUAUUACGGACC | -1.17 ± 0.17 | 0.79 ± 0.22
CGUCAGCAAUAUUACGCCGC | -2.76 ± 0.32 | -1.05 ± 0.27
GCCCAGCAAUAUUACGCGCC | -4.19 ± 0.42 | -0.613 ± 0.19
AUCAAGCAAUAUUACGUUCA | -1.91 ± 0.11 | -0.446 ± 0.13
GCCUAGCAAUAUUACGGGAU | -0.903 ± 0.11 | 0.0611 ± 0.13

Sequence | self-splicing fitness (ln) (30 °C) | self-splicing fitness (ln) (37 °C)
CCCCAGCAAUAUUACGUUAG | -3.99 ± 0.15 | -2.97 ± 0.15
CAGGAGCAAUAUUACGCAGA | -2.76 ± 0.33 | -2.29 ± 0.2
UUGAAGCAAUAUUACGCCAG | -0.461 ± 0.14 | 0.214 ± 0.21
ACCCAGCAAUAUUACGAUUA | -1.61 ± 0.09 | -1.41 ± 0.082
CACUAGCAAUAUUACGACUC | -1.68 ± 0.21 | -2.63 ± 0.36
AAUGAGCAAUAUUACGAAAG |  | -3.18 ± 0.4
CCCUAGCAAUAUUACGCAUG | -2.33 ± 0.14 | -2.73 ± 0.2
GAUGAGCAAUAUUACGGACA | -2.22 ± 0.45 | -3.08 ± 0.47
CUCUAGCAAUAUUACGGUGG | -2.88 ± 0.15 | -2.48 ± 0.21
CUAGAGCAAUAUUACGACCU | -3.67 ± 0.27 | -2.99 ± 0.33
CUGUAGCAAUAUUACGCUAG | -3.71 ± 0.21 | -2.36 ± 0.23
CCACAGCAAUAUUACGUAGC | -4.48 ± 0.29 | -2.7 ± 0.26
GGGGAGCAAUAUUACGCUGA | -3.2 ± 0.16 | -2.33 ± 0.2
CCAAAGCAAUAUUACGUCGC | -3.49 ± 0.18 | -2.29 ± 0.18
UGGCAGCAAUAUUACGCGGU | -2.54 ± 0.16 | -2.62 ± 0.31
CAGGAGCAAUAUUACGUAAA | -1.92 ± 0.25 | -1.24 ± 0.31
CCAGAGCAAUAUUACGUGAC | -3.36 ± 0.19 | -3.93 ± 0.46
CAGCAGCAAUAUUACGCCAC | -4.15 ± 0.26 | -3.31 ± 0.29
AAGUAGCAAUAUUACGGCGG | -2.56 ± 0.17 | -0.842 ± 0.15
CGCCAGCAAUAUUACGUUGU | -3.62 ± 0.14 | -3.07 ± 0.15
ACGUAGCAAUAUUACGGGUU | -3.54 ± 0.2 | -2.07 ± 0.21
CCCAAGCAAUAUUACGGGCG | -3.29 ± 0.17 | -1.79 ± 0.15
CGAAAGCAAUAUUACGCAGC | -3 ± 0.24 | -3.68 ± 0.33
UUAAAGCAAUAUUACGUCGU | -1.76 ± 0.11 | -0.737 ± 0.12
GUCGAGCAAUAUUACGUCCC | -1.03 ± 0.19 | -0.687 ± 0.33
CCAAAGCAAUAUUACGCAUG | -1.22 ± 0.063 | -0.772 ± 0.084

Sequence | self-splicing fitness (ln) (30 °C) | self-splicing fitness (ln) (37 °C)
AGAUAGCAAUAUUACGCUAC | -2.97 ± 0.44 | -2.56 ± 0.38
GAGAAGCAAUAUUACGUGCU | -2.51 ± 0.21 | -0.848 ± 0.17
AUAUAGCAAUAUUACGCCGA | -2.85 ± 0.48 | -1.13 ± 0.35
UCAGAGCAAUAUUACGGGAG | -2.82 ± 0.21 | -2.14 ± 0.34
AUUGAGCAAUAUUACGGUAC |  | -1.72 ± 0.31
GCAAAGCAAUAUUACGGAAC | -1.63 ± 0.18 | -0.635 ± 0.17
UUGGAGCAAUAUUACGAGUC |  | -3.03 ± 0.43
CUCCAGCAAUAUUACGGUGC | -2.92 ± 0.17 | -2.27 ± 0.24
GAGGAGCAAUAUUACGCCAU | -3.46 ± 0.47 | -2.37 ± 0.41
GACGAGCAAUAUUACGAUGC | -3.82 ± 0.44 | -0.275 ± 0.21
AGAAAGCAAUAUUACGAGAA | -2.63 ± 0.27 | -1.24 ± 0.25
AAAAAGCAAUAUUACGGUUA | 0.0411 ± 0.067 | -0.012 ± 0.079
AUCAAGCAAUAUUACGCGAG | -1.3 ± 0.081 | -0.224 ± 0.086
GCGCAGCAAUAUUACGUAGU | -0.438 ± 0.06 | 0.18 ± 0.076
CAUCAGCAAUAUUACGAGCU | -1.92 ± 0.26 | -2.3 ± 0.47
GUGUAGCAAUAUUACGUUGG | -4.05 ± 0.42 | -2.06 ± 0.21
CUCGAGCAAUAUUACGUUAC |  | -2.22 ± 0.43
GAGUAGCAAUAUUACGAUAC | -2.31 ± 0.21 | -2.92 ± 0.24
CGCGAGCAAUAUUACGAGCC | -3.49 ± 0.32 | -1.4 ± 0.28
UCUUAGCAAUAUUACGUUCA | -2.92 ± 0.14 | -1.85 ± 0.11
CGAAAGCAAUAUUACGGGAA | -2.17 ± 0.4 | -2.08 ± 0.26
GCCCAGCAAUAUUACGCCAA | -3.11 ± 0.14 | -1.71 ± 0.1
GCACAGCAAUAUUACGCAAC | -2.31 ± 0.17 | -1.03 ± 0.19
AUCCAGCAAUAUUACGCUAU | -1.51 ± 0.09 | -1.26 ± 0.1
